Assay results from paper PMC3526269, “Demethylation initiated by ROS1 glycosylase involves random sliding along DNA”.
Numbering of substitutions follows the chain as printed.

Tests used:
[1] = biological target: T1, NΔ294-ROS1 (Arabidopsis, UniProt Q9SJQ6 295-1393, del1-294); assay: EMSA; dissociates when chased with unlabelled S; needs higher protein than SL1-2; EMSA: 10 nM (so in the source) Tris-HCl pH 8.0, 1 mM DTT, 10 ug/ml BSA, 1 mM EDTA, 25 C, 60 min; 100 nM probe; 0.2% agarose, 1x TAE; details: protein: recombinant; tags: N-terminal His; label: 5'-fluorescein upper strand
T1 sequence: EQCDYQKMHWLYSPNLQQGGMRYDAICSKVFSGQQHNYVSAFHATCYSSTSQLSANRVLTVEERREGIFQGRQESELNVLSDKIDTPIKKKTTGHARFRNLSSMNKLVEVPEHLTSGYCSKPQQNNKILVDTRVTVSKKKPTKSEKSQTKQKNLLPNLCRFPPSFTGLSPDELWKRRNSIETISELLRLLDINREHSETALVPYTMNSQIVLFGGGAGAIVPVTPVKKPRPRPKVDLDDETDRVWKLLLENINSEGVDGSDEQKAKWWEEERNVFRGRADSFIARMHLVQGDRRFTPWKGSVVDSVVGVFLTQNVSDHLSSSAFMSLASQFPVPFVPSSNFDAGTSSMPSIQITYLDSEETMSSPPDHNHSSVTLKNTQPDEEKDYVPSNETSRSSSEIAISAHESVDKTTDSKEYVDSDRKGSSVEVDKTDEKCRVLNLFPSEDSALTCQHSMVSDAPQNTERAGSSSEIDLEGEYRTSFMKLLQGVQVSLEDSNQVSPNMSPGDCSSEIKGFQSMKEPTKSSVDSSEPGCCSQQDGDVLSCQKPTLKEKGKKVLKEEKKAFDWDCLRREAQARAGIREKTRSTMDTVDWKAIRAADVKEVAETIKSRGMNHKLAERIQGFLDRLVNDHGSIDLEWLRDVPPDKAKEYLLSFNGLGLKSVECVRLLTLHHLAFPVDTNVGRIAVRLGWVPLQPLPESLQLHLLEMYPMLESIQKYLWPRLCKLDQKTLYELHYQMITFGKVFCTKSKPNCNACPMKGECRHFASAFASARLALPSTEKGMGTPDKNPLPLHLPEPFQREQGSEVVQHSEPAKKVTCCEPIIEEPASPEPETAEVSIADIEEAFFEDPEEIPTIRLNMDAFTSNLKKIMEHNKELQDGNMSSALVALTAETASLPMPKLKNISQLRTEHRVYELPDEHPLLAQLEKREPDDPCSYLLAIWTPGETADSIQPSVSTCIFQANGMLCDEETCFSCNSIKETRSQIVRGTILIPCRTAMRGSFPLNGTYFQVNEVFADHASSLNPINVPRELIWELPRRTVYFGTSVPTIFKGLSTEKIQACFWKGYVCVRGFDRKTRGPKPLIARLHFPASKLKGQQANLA

[2] = biological target: T2, FL-ROS1 (Arabidopsis, UniProt Q9SJQ6 1-1393); assay: EMSA; dissociates when chased with unlabelled S; EMSA: 10 nM (so in the source) Tris-HCl pH 8.0, 1 mM DTT, 10 ug/ml BSA, 1 mM EDTA, 25 C, 60 min; 100 nM probe; 0.2% agarose, 1x TAE; details: protein: recombinant; tags: N-terminal His; label: 5'-fluorescein upper strand
T2 sequence: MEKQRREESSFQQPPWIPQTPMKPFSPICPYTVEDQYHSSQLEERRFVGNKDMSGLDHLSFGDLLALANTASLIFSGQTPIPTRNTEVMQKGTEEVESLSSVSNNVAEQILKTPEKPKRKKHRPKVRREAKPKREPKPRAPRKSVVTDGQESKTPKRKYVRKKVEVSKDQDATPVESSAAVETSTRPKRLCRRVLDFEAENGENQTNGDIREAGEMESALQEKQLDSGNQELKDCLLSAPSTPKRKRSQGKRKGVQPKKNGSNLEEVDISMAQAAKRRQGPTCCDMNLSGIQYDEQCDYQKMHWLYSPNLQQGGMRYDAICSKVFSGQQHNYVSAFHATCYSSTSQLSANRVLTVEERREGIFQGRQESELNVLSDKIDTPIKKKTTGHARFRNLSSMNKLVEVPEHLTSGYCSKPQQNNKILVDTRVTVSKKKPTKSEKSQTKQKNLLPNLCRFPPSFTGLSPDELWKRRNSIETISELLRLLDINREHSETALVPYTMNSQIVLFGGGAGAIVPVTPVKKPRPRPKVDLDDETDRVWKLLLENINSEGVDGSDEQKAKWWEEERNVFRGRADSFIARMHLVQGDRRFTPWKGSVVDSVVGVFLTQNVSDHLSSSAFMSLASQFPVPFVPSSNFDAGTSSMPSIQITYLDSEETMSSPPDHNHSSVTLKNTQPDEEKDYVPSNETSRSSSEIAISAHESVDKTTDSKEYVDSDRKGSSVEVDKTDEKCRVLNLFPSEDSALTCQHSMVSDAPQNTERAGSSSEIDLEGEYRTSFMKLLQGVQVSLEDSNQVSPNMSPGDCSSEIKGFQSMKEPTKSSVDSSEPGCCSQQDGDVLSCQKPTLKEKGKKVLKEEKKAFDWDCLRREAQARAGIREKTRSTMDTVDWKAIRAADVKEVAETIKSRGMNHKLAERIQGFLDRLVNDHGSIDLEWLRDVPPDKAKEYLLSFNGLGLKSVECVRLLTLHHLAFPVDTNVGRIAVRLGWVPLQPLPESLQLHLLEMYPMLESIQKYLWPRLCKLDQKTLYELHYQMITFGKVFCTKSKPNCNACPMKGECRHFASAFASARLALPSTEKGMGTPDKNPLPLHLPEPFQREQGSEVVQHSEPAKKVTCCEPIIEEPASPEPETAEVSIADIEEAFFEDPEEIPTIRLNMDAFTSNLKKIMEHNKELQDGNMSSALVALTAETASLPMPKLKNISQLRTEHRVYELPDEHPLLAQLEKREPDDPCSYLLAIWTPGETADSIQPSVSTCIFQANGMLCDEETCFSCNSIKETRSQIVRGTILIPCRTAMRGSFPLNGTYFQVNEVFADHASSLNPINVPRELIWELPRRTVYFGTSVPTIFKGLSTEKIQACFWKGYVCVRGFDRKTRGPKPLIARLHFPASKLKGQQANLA

[3] = biological target: T2, FL-ROS1; assay: EMSA; remains bound when chased with unlabelled S; affinity not higher than for S; EMSA: 10 nM (so in the source) Tris-HCl pH 8.0, 1 mM DTT, 10 ug/ml BSA, 1 mM EDTA, 25 C, 60 min; 100 nM probe; 0.2% agarose, 1x TAE; details: protein: recombinant; tags: N-terminal His; label: 5'-fluorescein upper strand; four-way junction obstacles on both sides
[4] = biological target: T1, NΔ294-ROS1; assay: EMSA; binds at lower concentration than to S; displaced at high competitor S; EMSA: 10 nM (so in the source) Tris-HCl pH 8.0, 1 mM DTT, 10 ug/ml BSA, 1 mM EDTA, 25 C, 60 min; 100 nM probe; 0.2% agarose, 1x TAE; details: protein: recombinant; tags: N-terminal His; label: 5'-fluorescein upper strand; four-way junction obstacles on both sides
[5] = biological target: T2, FL-ROS1; assay: EMSA; chase with competitor; similar to methylated S; EMSA: 10 nM (so in the source) Tris-HCl pH 8.0, 1 mM DTT, 10 ug/ml BSA, 1 mM EDTA, 25 C, 60 min; 100 nM probe; 0.2% agarose, 1x TAE; details: protein: recombinant; tags: N-terminal His; label: 5'-fluorescein upper strand
[6] = biological target: T2, FL-ROS1; assay: EMSA; chase with competitor; similar to methylated SL1-2; EMSA: 10 nM (so in the source) Tris-HCl pH 8.0, 1 mM DTT, 10 ug/ml BSA, 1 mM EDTA, 25 C, 60 min; 100 nM probe; 0.2% agarose, 1x TAE; details: protein: recombinant; tags: N-terminal His; label: 5'-fluorescein upper strand; four-way junction obstacles on both sides
[7] = biological target: T2, FL-ROS1; assay: EMSA; low dissociation with competitor S, slightly higher than SL1-2; EMSA: 10 nM (so in the source) Tris-HCl pH 8.0, 1 mM DTT, 10 ug/ml BSA, 1 mM EDTA, 25 C, 60 min; 100 nM probe; 0.2% agarose, 1x TAE; details: protein: recombinant, tags: N-terminal His, label: 5'-fluorescein upper strand, four-way junction obstacle
[8] = biological target: T1, NΔ294-ROS1; assay: EMSA; easier to dissociate by competitor S than FL-ROS1; EMSA: 10 nM (so in the source) Tris-HCl pH 8.0, 1 mM DTT, 10 ug/ml BSA, 1 mM EDTA, 25 C, 60 min; 100 nM probe; 0.2% agarose, 1x TAE; details: protein: recombinant, tags: N-terminal His, label: 5'-fluorescein upper strand, four-way junction obstacle
[9] = biological target: T2, FL-ROS1; assay: EMSA; dissociates when chased with mismatched S; EMSA: 10 nM (so in the source) Tris-HCl pH 8.0, 1 mM DTT, 10 ug/ml BSA, 1 mM EDTA, 25 C, 60 min; 100 nM probe; 0.2% agarose, 1x TAE; details: protein: recombinant; tags: N-terminal His; label: 5'-fluorescein upper strand; central T:G mispair
[10] = biological target: T2, FL-ROS1; assay: EMSA; remains bound when chased with mismatched S; affinity not higher than for S; EMSA: 10 nM (so in the source) Tris-HCl pH 8.0, 1 mM DTT, 10 ug/ml BSA, 1 mM EDTA, 25 C, 60 min; 100 nM probe; 0.2% agarose, 1x TAE; details: protein: recombinant; tags: N-terminal His; label: 5'-fluorescein upper strand; four-way junction obstacles on both sides; central T:G mispair

B1: S (5-meC:G) (dsDNA)
DNA 1: TCACGCGGGATCAATGTGTTCTTTCAGCTCCGGTCACGCTGACCAGGAATACCTCACTACC
DNA 2: GGTAGTGAGGTATTCCTGGTCAGCGTGACCGGAGCTGAAAGAACACATTGATCCCGCGTGA
modifications: one central 5-meC in CG context
B1: binds [1]; binds [2].

B2: SL1-2 (5-meC:G) (dsDNA)
DNA 1: B1 DNA 1
DNA 2: GGTAGTGAGGTATTCCCCCGTAAGGGTCCGTAAGGATGGTCAGCGTGACCGGAGCTGAAAGAACACCCGTAAGGGTCCGTAAGGACATTGATCCCGCGTGA
modifications: one central 5-meC in CG context
B2: binds [3]; binds [4].

B3: S (homoduplex, no target) (dsDNA)
DNA 1: B1 DNA 1
DNA 2: B1 DNA 2
B3: binds [5].

B4: SL1-2 (homoduplex, no target) (dsDNA)
DNA 1: B1 DNA 1
DNA 2: B2 DNA 2
B4: binds [6].

B5: SL1 (5-meC:G) (dsDNA)
DNA 1: B1 DNA 1
DNA 2: GGTAGTGAGGTATTCCCCCGTAAGGGTCCGTAAGGATGGTCAGCGTGACCGGAGCTGAAAGAACACATTGATCCCGCGTGA
modifications: one central 5-meC in CG context
B5: binds ([7]; left); binds ([8]; left).

B6: SL2 (5-meC:G) (dsDNA)
DNA 1: B1 DNA 1
DNA 2: GGTAGTGAGGTATTCCTGGTCAGCGTGACCGGAGCTGAAAGAACACCCGTAAGGGTCCGTAAGGACATTGATCCCGCGTGA
modifications: one central 5-meC in CG context
B6: binds ([7]; right); binds ([8]; right).

B7: S (T:G) (dsDNA)
DNA 1: B1 DNA 1 with C31T
DNA 2: B1 DNA 2
B7: binds [9].

B8: SL1-2 (T:G) (dsDNA)
DNA 1: B1 DNA 1 with C31T
DNA 2: B2 DNA 2
B8: binds [10].
